Tests used:
Conditions in all cases: partners not purified
[1] = target: T1, Drosophila Hsp90, two-hybrid fusion (Drosophila, UniProt P02828 1-717); assay: two-hybrid; TTC4 with Drosophila proteins; data not shown
T1 construct: Hsp90 (Hsp83) of Drosophila; construct not described; Two-hybrid fusion; also called DmHsp90; source: yeast two-hybrid fusion

[2] = target: T2, Drosophila Cdc6, two-hybrid fusion (Drosophila, UniProt Q9VSM9 1-662); assay: as above
T2 construct: Cdc6 of Drosophila; construct not described; Two-hybrid fusion; also called DmCdc6; source: yeast two-hybrid fusion
T2 sequence (looked up): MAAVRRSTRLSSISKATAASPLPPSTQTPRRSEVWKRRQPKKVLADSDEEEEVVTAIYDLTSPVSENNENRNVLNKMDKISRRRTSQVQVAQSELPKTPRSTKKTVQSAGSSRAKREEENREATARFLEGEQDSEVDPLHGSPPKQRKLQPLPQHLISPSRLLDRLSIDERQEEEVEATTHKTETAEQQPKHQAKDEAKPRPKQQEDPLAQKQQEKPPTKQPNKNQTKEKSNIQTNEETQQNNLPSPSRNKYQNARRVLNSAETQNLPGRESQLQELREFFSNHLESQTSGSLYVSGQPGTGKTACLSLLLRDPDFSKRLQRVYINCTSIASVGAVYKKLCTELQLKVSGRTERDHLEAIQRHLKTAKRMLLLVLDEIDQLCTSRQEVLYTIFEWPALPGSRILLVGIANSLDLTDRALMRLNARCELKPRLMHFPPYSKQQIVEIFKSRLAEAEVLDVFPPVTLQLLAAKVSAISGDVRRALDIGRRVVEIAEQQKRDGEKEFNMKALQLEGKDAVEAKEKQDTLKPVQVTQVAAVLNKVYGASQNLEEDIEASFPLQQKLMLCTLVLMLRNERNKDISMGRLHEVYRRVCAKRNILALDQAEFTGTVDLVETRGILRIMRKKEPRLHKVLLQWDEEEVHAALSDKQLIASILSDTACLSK

[3] = target: T3, human HSP90 protein 1 beta (HSPCB), two-hybrid fusion in pEG202 (human, UniProt P08238 1-724); assay: two-hybrid; quantitative liquid beta-galactosidase assays; values as a percentage of the cdc6/TTC4 interaction
T3 construct: HSP90 protein 1 beta (HSPCB), human full length cDNA clone from Origene, cloned in the Not1 and Xho1 sites of pEG202; also called HuHSP90; huHSP90; source: yeast two-hybrid fusion
T3 sequence (P08238 whole entry, the tested form may be a part): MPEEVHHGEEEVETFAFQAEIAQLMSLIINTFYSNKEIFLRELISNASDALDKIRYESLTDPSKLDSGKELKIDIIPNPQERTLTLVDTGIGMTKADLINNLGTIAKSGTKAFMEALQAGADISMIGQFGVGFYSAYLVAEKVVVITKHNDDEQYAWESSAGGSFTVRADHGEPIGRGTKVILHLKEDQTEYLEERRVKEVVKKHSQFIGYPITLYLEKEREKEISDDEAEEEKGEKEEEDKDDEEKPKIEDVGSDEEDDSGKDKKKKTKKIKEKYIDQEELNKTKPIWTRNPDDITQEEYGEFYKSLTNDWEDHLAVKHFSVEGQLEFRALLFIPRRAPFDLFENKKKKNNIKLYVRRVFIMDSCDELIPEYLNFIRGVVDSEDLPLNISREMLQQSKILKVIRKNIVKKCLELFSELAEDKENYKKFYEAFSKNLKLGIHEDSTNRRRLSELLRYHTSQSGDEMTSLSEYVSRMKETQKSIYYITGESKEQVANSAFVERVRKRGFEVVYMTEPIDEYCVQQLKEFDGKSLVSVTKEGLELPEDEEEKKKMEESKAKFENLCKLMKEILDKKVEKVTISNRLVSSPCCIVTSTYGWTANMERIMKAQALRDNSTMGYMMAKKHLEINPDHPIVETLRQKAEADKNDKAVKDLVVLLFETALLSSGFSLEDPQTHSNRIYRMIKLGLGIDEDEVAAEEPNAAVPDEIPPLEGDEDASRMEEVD

[4] = target: T4, human HSP70 protein 8 (HSPA8), two-hybrid fusion in pEG202 (human, UniProt P11142 1-646); assay: as above
T4 construct: HSP70 protein 8 (HSPA8), human full length cDNA clone from Origene, cloned in the BamH1 and Xho1 sites of pEG202; also called HuHSP70; source: yeast two-hybrid fusion
T4 sequence (P11142 whole entry, the tested form may be a part): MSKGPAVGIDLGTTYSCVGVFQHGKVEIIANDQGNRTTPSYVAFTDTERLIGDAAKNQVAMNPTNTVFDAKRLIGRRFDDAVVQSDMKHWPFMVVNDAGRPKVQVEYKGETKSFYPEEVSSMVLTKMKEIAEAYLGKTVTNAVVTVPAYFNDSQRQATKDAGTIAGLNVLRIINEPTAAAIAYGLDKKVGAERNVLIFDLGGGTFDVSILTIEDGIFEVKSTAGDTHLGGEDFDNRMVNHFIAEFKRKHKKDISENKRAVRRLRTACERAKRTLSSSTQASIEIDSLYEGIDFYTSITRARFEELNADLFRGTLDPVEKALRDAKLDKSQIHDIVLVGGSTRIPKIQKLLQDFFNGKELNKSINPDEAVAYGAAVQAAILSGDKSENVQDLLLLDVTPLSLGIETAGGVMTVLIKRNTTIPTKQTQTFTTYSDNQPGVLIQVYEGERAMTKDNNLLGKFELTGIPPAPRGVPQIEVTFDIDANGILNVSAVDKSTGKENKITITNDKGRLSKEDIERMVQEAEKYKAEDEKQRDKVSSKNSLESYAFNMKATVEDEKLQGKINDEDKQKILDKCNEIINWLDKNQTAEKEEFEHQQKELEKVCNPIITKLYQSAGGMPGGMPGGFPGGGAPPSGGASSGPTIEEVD

[5] = target: T5, human CDC6, two-hybrid fusion in pEG202 (human, UniProt Q99741 1-560); assay: as above
T5 construct: CDC6, human; clone from A. Dutta, cloned in the BamH1 and Not1 sites of pEG202; also called HuCDC6; hCDC6; source: yeast two-hybrid fusion
T5 sequence (looked up): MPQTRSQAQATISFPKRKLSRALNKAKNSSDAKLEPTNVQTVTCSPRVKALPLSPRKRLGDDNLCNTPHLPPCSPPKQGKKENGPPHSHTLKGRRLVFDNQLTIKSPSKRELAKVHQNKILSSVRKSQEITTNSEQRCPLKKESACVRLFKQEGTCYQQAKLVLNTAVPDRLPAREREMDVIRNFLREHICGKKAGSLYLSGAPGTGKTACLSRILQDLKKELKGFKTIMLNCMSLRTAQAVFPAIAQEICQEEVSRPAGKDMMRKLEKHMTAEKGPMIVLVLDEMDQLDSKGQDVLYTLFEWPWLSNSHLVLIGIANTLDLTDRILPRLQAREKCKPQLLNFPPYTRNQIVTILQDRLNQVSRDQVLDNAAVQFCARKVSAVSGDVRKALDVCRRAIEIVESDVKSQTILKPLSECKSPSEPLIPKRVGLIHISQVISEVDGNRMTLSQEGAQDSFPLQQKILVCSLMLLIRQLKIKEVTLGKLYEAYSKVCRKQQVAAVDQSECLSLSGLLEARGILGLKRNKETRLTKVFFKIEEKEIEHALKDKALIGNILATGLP

[6] = target: T6, human DNA polymerase alpha large subunit, two-hybrid fusion (human, UniProt P09884 1-1462); assay: as above
T6 construct: DNA polymerase alpha large (catalytic) subunit, human; Two-hybrid fusion; also called HDPa; source: yeast two-hybrid fusion
T6 sequence (looked up): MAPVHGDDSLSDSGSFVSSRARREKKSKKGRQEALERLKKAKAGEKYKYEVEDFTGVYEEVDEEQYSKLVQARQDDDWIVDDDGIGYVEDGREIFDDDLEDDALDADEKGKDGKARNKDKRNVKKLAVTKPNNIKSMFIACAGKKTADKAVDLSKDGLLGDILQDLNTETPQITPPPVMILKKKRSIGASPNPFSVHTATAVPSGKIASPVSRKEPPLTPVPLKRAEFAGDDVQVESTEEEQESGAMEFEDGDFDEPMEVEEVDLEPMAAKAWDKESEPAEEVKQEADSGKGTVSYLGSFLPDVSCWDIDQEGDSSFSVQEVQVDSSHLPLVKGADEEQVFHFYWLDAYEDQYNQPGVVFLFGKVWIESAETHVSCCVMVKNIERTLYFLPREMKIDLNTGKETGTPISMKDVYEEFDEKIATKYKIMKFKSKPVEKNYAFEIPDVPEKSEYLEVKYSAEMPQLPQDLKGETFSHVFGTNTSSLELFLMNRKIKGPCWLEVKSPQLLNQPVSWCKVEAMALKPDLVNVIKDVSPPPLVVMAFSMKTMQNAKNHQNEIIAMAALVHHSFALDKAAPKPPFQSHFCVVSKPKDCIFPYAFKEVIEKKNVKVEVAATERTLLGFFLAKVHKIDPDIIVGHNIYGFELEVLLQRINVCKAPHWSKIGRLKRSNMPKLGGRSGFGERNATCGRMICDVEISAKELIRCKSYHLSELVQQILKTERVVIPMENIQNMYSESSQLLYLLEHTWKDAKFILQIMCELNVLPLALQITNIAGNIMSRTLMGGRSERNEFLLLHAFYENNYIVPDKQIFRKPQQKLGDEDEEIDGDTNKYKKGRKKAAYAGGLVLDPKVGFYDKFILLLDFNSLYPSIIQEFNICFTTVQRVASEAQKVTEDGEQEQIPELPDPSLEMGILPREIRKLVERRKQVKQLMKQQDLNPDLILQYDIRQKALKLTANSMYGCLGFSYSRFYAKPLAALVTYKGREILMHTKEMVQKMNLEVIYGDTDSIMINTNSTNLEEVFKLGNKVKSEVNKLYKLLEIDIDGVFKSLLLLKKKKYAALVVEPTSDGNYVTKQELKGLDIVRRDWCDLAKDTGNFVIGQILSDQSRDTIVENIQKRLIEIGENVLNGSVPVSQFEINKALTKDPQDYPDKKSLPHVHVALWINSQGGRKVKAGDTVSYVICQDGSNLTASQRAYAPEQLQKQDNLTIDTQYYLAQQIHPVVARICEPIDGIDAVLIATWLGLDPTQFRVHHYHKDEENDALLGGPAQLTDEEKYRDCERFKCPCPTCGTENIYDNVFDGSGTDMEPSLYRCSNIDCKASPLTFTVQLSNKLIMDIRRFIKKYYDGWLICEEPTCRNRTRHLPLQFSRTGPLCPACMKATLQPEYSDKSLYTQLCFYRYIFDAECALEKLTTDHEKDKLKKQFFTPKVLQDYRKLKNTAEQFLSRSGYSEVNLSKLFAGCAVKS

T1 sequence (P02828 whole entry, the tested form may be a part): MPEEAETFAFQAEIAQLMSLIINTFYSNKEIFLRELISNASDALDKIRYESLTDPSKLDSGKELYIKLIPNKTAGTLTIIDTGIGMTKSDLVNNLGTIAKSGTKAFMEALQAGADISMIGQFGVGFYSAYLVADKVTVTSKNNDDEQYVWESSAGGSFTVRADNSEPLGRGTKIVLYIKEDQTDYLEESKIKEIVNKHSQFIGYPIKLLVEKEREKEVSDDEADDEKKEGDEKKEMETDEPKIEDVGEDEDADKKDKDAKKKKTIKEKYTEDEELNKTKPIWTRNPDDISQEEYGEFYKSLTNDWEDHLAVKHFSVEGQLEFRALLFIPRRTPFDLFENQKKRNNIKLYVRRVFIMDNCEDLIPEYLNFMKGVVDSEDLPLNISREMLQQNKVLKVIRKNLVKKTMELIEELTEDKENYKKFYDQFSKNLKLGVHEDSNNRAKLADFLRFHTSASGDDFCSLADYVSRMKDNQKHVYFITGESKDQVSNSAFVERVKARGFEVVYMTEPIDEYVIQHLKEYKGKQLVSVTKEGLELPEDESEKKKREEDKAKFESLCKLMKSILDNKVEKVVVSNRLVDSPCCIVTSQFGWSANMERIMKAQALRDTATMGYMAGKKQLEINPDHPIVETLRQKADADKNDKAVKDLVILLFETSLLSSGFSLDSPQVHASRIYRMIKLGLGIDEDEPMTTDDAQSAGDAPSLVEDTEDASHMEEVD

B1: human TTC4, two-hybrid fusion in pJG4.5 (natural protein, UniProt O95801 1-387, looked up)
chain: MEQPGQDPTSDDVMDSFLEKFQSQPYRGGFHEDQWEKEFEKVPLFMSRAPSEIDPRENPDLACLQSIIFDEERSPEEQAKTYKDEGNDYFKEKDYKKAVISYTEGLKKKCADPDLNAVLYTNRAAAQYYLGNFRSALNDVTAARKLKPCHLKAIIRGALCHLELKHFAEAVNWCDEGLQIDAKEKKLLEMRAKADKLKRIEQRDVRKANLKEKKERNQNEALLQAIKARNIRLSEAACEDEDSASEGLGELFLDGLSTENPHGARLSLDGQGRLSWPVLFLYPEYAQSDFISAFHEDSRFIDHLMVMFGETPSWDLEQKYCPDNLEVYFEDEDRAELYRVPAKSTLLQVLQHQRYFVKALTPAFLVCVGSSPFCKNFLRGRKVYQIR
notes: TTC4 (tetratricopeptide repeat protein 4), human; full length gene, insert amplified and cloned in the EcoR1 and Xho sites of pJG4.5; source: yeast two-hybrid fusion
B1 was tested, and the “two-hybrid strength relative to TTC4 with huHSP90” value [1] was 50%, the “two-hybrid strength relative to TTC4 with human CDC6” value [2] was 50% and the “two-hybrid beta-galactosidase, percentage of the cdc6/TTC4 interaction” value [3] was 100%. The “two-hybrid beta-galactosidase, percentage of the cdc6/TTC4 interaction” value [4] was 80%, the “two-hybrid beta-galactosidase, percentage of the cdc6/TTC4 interaction” value [5] was 100% and the “two-hybrid beta-galactosidase, percentage of the cdc6/TTC4 interaction” value [6] was under 5%.

B2: TTC4-230AC (77EA), two-hybrid fusion in pJG4.5 (natural protein, human, UniProt O95801 1-387, looked up)
chain: MEQPGQDPTSDDVMDSFLEKFQSQPYRGGFHEDQWEKEFEKVPLFMSRAPSEIDPRENPDLACLQSIIFDEERSPEAQAKTYKDEGNDYFKEKDYKKAVISYTEGLKKKCADPDLNAVLYTNRAAAQYYLGNFRSALNDVTAARKLKPCHLKAIIRGALCHLELKHFAEAVNWCDEGLQIDAKEKKLLEMRAKADKLKRIEQRDVRKANLKEKKERNQNEALLQAIKARNIRLSEAACEDEDSASEGLGELFLDGLSTENPHGARLSLDGQGRLSWPVLFLYPEYAQSDFISAFHEDSRFIDHLMVMFGETPSWDLEQKYCPDNLEVYFEDEDRAELYRVPAKSTLLQVLQHQRYFVKALTPAFLVCVGSSPFCKNFLRGRKVYQIR
notes: TTC4, human, with a point mutation reported in melanoma samples, made by site-directed mutagenesis in TTC4 (pJG4.5); also called TTC4 codon 77 E to A; source: yeast two-hybrid fusion
For B2, the “two-hybrid beta-galactosidase, percentage of the cdc6/TTC4 interaction” value [3] was 75%, the “two-hybrid beta-galactosidase, percentage of the cdc6/TTC4 interaction” value [4] was 70% and the “two-hybrid beta-galactosidase, percentage of the cdc6/TTC4 interaction” value [5] was under 5%.

B3: TTC4-125TA (42VD), two-hybrid fusion in pJG4.5 (natural protein, human, UniProt O95801 1-387, looked up)
chain: MEQPGQDPTSDDVMDSFLEKFQSQPYRGGFHEDQWEKEFEKDPLFMSRAPSEIDPRENPDLACLQSIIFDEERSPEEQAKTYKDEGNDYFKEKDYKKAVISYTEGLKKKCADPDLNAVLYTNRAAAQYYLGNFRSALNDVTAARKLKPCHLKAIIRGALCHLELKHFAEAVNWCDEGLQIDAKEKKLLEMRAKADKLKRIEQRDVRKANLKEKKERNQNEALLQAIKARNIRLSEAACEDEDSASEGLGELFLDGLSTENPHGARLSLDGQGRLSWPVLFLYPEYAQSDFISAFHEDSRFIDHLMVMFGETPSWDLEQKYCPDNLEVYFEDEDRAELYRVPAKSTLLQVLQHQRYFVKALTPAFLVCVGSSPFCKNFLRGRKVYQIR
notes: TTC4, human, with a point mutation reported in melanoma samples, made by site-directed mutagenesis in TTC4 (pJG4.5); also called TTC4 codon 42 V to D; source: yeast two-hybrid fusion
With B3 the “two-hybrid beta-galactosidase, percentage of the cdc6/TTC4 interaction” value [3] was 80%, the “two-hybrid beta-galactosidase, percentage of the cdc6/TTC4 interaction” value [4] was 65% and the “two-hybrid beta-galactosidase, percentage of the cdc6/TTC4 interaction” value [5] was 95%.

B4: TTC4-651-TA (217NK), two-hybrid fusion in pJG4.5 (natural protein, human, UniProt O95801 1-387, looked up)
chain: MEQPGQDPTSDDVMDSFLEKFQSQPYRGGFHEDQWEKEFEKVPLFMSRAPSEIDPRENPDLACLQSIIFDEERSPEEQAKTYKDEGNDYFKEKDYKKAVISYTEGLKKKCADPDLNAVLYTNRAAAQYYLGNFRSALNDVTAARKLKPCHLKAIIRGALCHLELKHFAEAVNWCDEGLQIDAKEKKLLEMRAKADKLKRIEQRDVRKANLKEKKERKQNEALLQAIKARNIRLSEAACEDEDSASEGLGELFLDGLSTENPHGARLSLDGQGRLSWPVLFLYPEYAQSDFISAFHEDSRFIDHLMVMFGETPSWDLEQKYCPDNLEVYFEDEDRAELYRVPAKSTLLQVLQHQRYFVKALTPAFLVCVGSSPFCKNFLRGRKVYQIR
notes: TTC4, human, with a point mutation reported in melanoma samples, made by site-directed mutagenesis in TTC4 (pJG4.5); also called TTC4 codon 217 N to K; source: yeast two-hybrid fusion
B4 was tested, and the “two-hybrid beta-galactosidase, percentage of the cdc6/TTC4 interaction” value [3] was 90%, the “two-hybrid beta-galactosidase, percentage of the cdc6/TTC4 interaction” value [4] was 70% and the “two-hybrid beta-galactosidase, percentage of the cdc6/TTC4 interaction” value [5] was under 5%.

B5: TTC4-201TG (67IM), two-hybrid fusion in pJG4.5 (natural protein, human, UniProt O95801 1-387, looked up)
chain: MEQPGQDPTSDDVMDSFLEKFQSQPYRGGFHEDQWEKEFEKVPLFMSRAPSEIDPRENPDLACLQSMIFDEERSPEEQAKTYKDEGNDYFKEKDYKKAVISYTEGLKKKCADPDLNAVLYTNRAAAQYYLGNFRSALNDVTAARKLKPCHLKAIIRGALCHLELKHFAEAVNWCDEGLQIDAKEKKLLEMRAKADKLKRIEQRDVRKANLKEKKERNQNEALLQAIKARNIRLSEAACEDEDSASEGLGELFLDGLSTENPHGARLSLDGQGRLSWPVLFLYPEYAQSDFISAFHEDSRFIDHLMVMFGETPSWDLEQKYCPDNLEVYFEDEDRAELYRVPAKSTLLQVLQHQRYFVKALTPAFLVCVGSSPFCKNFLRGRKVYQIR
notes: TTC4, human, with a point mutation reported in melanoma samples, made by site-directed mutagenesis in TTC4 (pJG4.5); also called TTC4 codon 67 I to M; source: yeast two-hybrid fusion
With B5 the “two-hybrid beta-galactosidase, percentage of the cdc6/TTC4 interaction” value [3] was 90%, the “two-hybrid beta-galactosidase, percentage of the cdc6/TTC4 interaction” value [4] was 70% and the “two-hybrid beta-galactosidase, percentage of the cdc6/TTC4 interaction” value [5] was 95%.

Source: PMC2253824, “The Human TPR Protein TTC4 Is a Putative Hsp90 Co-Chaperone Which Interacts with CDC6 and Shows Alterations in Transformed Cells” (PLoS ONE, 2008)
